B1: hilA -35+6 (dsDNA)
DNA 1: GATCCGCATTTACACCCCAAAAAAATGCAGTAAGATAGCTACAAA
DNA 2: AGCTTTTGTAGCTATCTTACTGCATTTTTTTGGGGTGTAAATGCG
B2: hilD -37+6 (dsDNA)
DNA 1: GATCCGCATTTACAACTCAGATTTTTTCAGTAGGATACCAGTAAGGA
DNA 2: AGCTTCCTTACTGGTATCCTACTGAAAAAATCTGAGTTGTAAATGCG

Biological target: 6H-SsrBc (Salmonella enterica serovar Typhimurium, UniProt Q7CQM5 138-212)
Experiment: EMSA; 0-2 uM protein
Settings: protein: recombinant; 5' overhang 4 nt at both ends

Sequence of 6H-SsrBc (Q7CQM5 138-212): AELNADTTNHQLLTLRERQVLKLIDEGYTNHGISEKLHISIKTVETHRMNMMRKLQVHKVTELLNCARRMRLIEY

Binder	binding result
B1	no binding
B2	binds
